Source: US20060154340A1

Target: trypsin
Assay: cell-based or functional assay

TrxA-PI2JO fusion protein (thioredoxin fused to potato proteinase inhibitor II isomer PI2JO, from plasmid pKBEPI-5 in E. coli BL21trxB(DE3)) (from UniProt P0AA25 1-109)
Trypsin inhibition activity (hydrolysis of TAME by trypsin followed at 247 nm; one unit = amount causing 50% inhibition of trypsin) (Trypsin-Inhibition-Unit/mL): 1390
